Target: rapsyn, endogenous in C2C12 myotubes (mouse (endogenous in C2C12)) (UniProt P12672)
Assay: co-IP; C2C12 myotube lysates, anti-rapsyn antibody and protein A agarose beads, blot for α-actinin; myotubes untreated, with agrin 10 ng/ml 18 hr, with agrin and STI-571, or with agrin and then 10 μM carbachol for 4 hr

Chain of UniProt P12672 (P12672 whole entry): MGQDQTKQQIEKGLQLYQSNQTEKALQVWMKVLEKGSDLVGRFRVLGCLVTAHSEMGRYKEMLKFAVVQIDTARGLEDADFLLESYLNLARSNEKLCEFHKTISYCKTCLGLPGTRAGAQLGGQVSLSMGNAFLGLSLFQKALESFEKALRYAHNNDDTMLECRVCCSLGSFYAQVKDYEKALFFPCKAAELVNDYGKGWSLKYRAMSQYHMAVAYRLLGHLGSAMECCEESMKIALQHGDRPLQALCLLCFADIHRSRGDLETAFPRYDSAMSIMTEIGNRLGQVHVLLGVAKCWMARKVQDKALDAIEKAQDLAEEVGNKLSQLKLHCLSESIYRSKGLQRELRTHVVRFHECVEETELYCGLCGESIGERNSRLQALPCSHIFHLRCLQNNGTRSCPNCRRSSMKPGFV

fold increase of the co-precipitation in agrin-treated against untreated myotubes: 6 to 10 fold
Substance: α-actinin, endogenous in myotubes (from UniProt Q9JI91 1-894) (natural protein)
